Tests used:
Test in all cases: ELISA; attachment factors coated at 280.0 pmol/mL in carbonate-bicarbonate buffer overnight at 4 C, blocked with 1.0% BSA; P protein (GI.1 or GII.4) 10.0 ug/mL, 1 h at 37 C; detected with anti-HuNoV monoclonal antibodies; positive when S/N >= 2.0
[1] = molecular target: recombinant C2JVE6 (ATP-dependent zinc metalloprotease) (Lactobacillus rhamnosus YQ001)
[2] = molecular target: recombinant C2JX39 (DNA topoisomerase 4 subunit A) (Lactobacillus rhamnosus YQ001)
[3] = molecular target: recombinant oyster heat shock protein 70 (oyster)
[4] = molecular target: recombinant C2K0J4 (Penicillin-binding protein, transpeptidase domain protein) (Lactobacillus rhamnosus YQ001)

Chain of GI.1 HuNoV P protein (domain or fragment) (Q83884 226-530 limits assumed): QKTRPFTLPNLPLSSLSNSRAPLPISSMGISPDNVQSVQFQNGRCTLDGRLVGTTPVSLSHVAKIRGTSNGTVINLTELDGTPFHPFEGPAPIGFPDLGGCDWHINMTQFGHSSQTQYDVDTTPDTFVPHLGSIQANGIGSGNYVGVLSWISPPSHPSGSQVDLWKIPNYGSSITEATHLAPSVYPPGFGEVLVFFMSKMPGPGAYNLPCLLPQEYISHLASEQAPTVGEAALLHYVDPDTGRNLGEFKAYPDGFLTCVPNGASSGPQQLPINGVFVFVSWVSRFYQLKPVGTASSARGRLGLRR

| Substance | S/N ratio [1] | S/N ratio [2] | S/N ratio [3] | S/N ratio [4] |
| --- | --- | --- | --- | --- |
| GI.1 HuNoV P protein (domain or fragment) | 16.6 | 16.4 | 15.5 | 16.4 |
| GII.4 HuNoV P protein (domain or fragment) | 16.7 |  | 16 | 17.3 |
